In the DeepSol protein solubility set:

Assay: soluble on expression in E. coli; label from the status in PepcDB or PDB records

Row | Sequence | soluble on expression in E. coli
1 | MGSDKIHHHHHHASCNKFDDLNTNPDAATKVTAPMLATKLILNITQQGSAKNFVYHSMLSKQIAWSENASDEQYNLFGRTDFDGYTILTNCQKMVDAANEGDKDSYAALAKFMKAYKLFYKSLEVGDIPYSDALKGEEGVQKPKYDTQKEVMRQVLEDLEEAYTLFSSGSDFDGDPIFGGDTENWKKTVVAFELKVLTHLCKKDTDADLKVKERFARLVSSGSLMTSNADNFQLVYSNKAGQLYPFYYTQNKHSDYLMMSSVIIDNLKKFNDYRMFYYASPAKAQTDKGIKDSEWDAYLSIDPSDSYSNISVLYGKGEFCLANLRYTRVPEGEPLMRLSYAEQNFILAEGAVRGWISEDASTYYKKGIEASMNFIADNTPDKEEYTHGRTITQEYIQEYLAQPVIQLSGDKEKDLEMILLQRYLASFLQHPYDAYYDYRRTGYPVLPINPSTNLNTEKNKIPTRWMYPEAEFSYNPDNANEAVQRQYNGSDDVNKLMWILQ | not soluble
2 | MNTQSLMSSTHTIAASDPHIQVMGRTHINDDASLTFGYPGVSLSTIVAGSRLTAEMQSSNGNSWIDVIIDNHPPTSIKLDAQQQTVELFHFPNSGEHRVEIIHRSENWHGQVTLKQLTLTGTQFLPAPVLPQRKILVLGDSVTCGEAIDRVAGEDKNTRWWNARESYGMLTAKALDAQVQLVCWGGRGLIRSWNGKTDDANLPDFYQFTLGDTGQAPQWDHHRYQPDLIISAIGTNDFSPGIPDRATYINTYTRFVRTLLDNHPQATIVLTEGAILNGDKKAALVSYIGETRQQLHSNRVFYASSSHHPGDNSDAHPTKDQHAAMARELTPQLRQIMDWLEHHHHHH | soluble
3 | MYQVIRMYGAMEPWWFLDDWKEDITKVLEFDNYHEALQCYQKEWAKLRRRYSDFNSHGDIMTAFWNKQDQHWCEECGDYVQRYHSLALLTDWQETPSSWFRPTFTKQNDTPFRSKCFIKQKNEQGQNLEHHHHHH | not soluble
4 | MGSDKIHHHHHHMHILIYSYNYHPEPIGIAPLMTELAEGLVNRGHEVRVITGMPNYPEREIYDGYRGQWYVTEQKNGVTIQRSYIRIKSKPNLLDRLLLELSFIFTSLPQAFRGERPDVMILTVPPLLGILPATIFGWLYNCPIVLNVQDILPEAAVRIGLLKNKWMIRTLAALEKFAYRTAHTISVIADGFRENLVNKGVPVNKIVCIPNWVNVNFIHPLPKQNNSWISSHQLDGKFIVLYSGNIALTQGLETVIEAAVCLRHIKEIVFVIVGESRALQRLQEYCLLHGADNVLLLPLQPREKLPEMLAAADVGLIVQKRNIISFNMPSKIPLLLASGRPIVGSVPATGTAARAIKLSGGGIIVEPESPDAMAAAVHDLYANPTFCTRLGNAGRQFAEENYSLEQALDRYEWLFYHILANRKSNVGILPKLDSKESVVDA | not soluble
5 | MGSDKIHHHHHHMENKVKTVAVFSGYYLPFLGGIERYTDKMTADLVKRGYRVVIVTTNHGDLPIIDEDKGRKIYRLPTKNIVKQRYPIINKNREYNTLMKYVSDENIDFVICNTRFQLTTLEGLSFAKNHHLPSIVLDHGSSHFSVNNRFLDFFGAIYEHLLTARVKHYRPDFYAVSKRSVEWLKHFNIEAKGVIYNSVSESLGSDFAGTAYLEKSADDIFITYAGRIIKEKGIELLLEAFSMSQYSENVYLQIAGDGPELAHLKEKYQSKQINFLGKLNFEQTMSLMAQTDIFVYPSMYPEGLPTSILEAGLLSSAIIATDRGGTVEVIDSPELGIIMEENTQSLHESLDLLVKDKALREKLQQNIAKRIKEHFTWEKTVEKLDYIIQKN | not soluble
6 | MGHHHHHHSHMSPDQFLLTVSALQHARNSGEFAYPCRPQTEITDVWGPSISYPRKVLNFKGKSIQRAVDRLRLSNPPIDVKRTSIPLEIQKLQPNLKISLHSPRAQSTIPEPMIIRSRFSGSLKGGDQVTSSIERAVCSTGPLTSMQVIKPNRMLAPQVGTATLSLKKERPRIYTALDPFRVNAEFVLLTVKEEKEHQEAKMKEYQARESTGVVDPGKASKAAWIRKIKGLPIDNFTKQGKTAAPELGQNVFI | soluble
7 | MSLPGSSNRPLPSSNDEFHYEDIELPSGYRSEGEVVDLLNPKDELEEPLFSEEPLFPVTTSIPTKTAVSKPKIAPTSAAKDVTFSSSIDSDDCSVAYDNSKPVRQYVLMIDAGSTGSRVHVYQFNNCNPSPKLEEEFFKMIEPGLSSFAGDPEGAAASLDPLLDYAMENVPEEYRRCSPIAVKATAGLRLTGESEAKAILKSVRQHLENDYPFPIVKDGVSILEGSMEGIYAWITINYLLGTLGGKATHSTVAVMDLGGASTQLVFEPRFASDGESLVDGDHKYVLDYNGEQYELYQHSHLGYGLKEARKLIHKFVLNNAEALKESLELLGDSTSIIHPCLHLNASLTHPDSKSEASEVVFVGPSLAHLSLQCRGIAEKALYKDKNCPVRPCSFNGVHQPKFTETFTDSPIYLISYFYDRMISLGMPSTFTIEDMKYLANSVCSGPTYWQDAFSLTDALKELKEEPEWCLDLNYMISLLSVGYEIPNNRQLHTAKKIDNKELGWCLGASLSMLSEQNNGWNCNVKEEIEGHHHHHH | not soluble
8 | MEGYPKIQYHGFIGNNRTAMLVAMNGYIDWGCLPNFNSNAVFSSILDKNKGGYFAIFPSDTTDVYVDQYYKEMTNVLVTEFVKNGKIILRLTDFMPDSEYGKISFPEVHRFVESFSEPIDITIDFKPTFNYLEHHHHHH | not soluble
9 | MGHHHHHHSHINTPEQTVPYGLSNYRGSFRGKRSAGPLPGNLQLSHRPHLRCACVGRYDKACLHFCTQTLDVSSNSRTAEKTDKEEEGKVRGANRGLCQRRLKSRTNKASRL | not soluble
10 | GHMTKLFSKVKESIEGIKMPSTLTINGKAPIVAYAELIAARIVNALAPNSIAIKLVDDKKAPAAKLDDATEDVFNKITSKFAAIFDNGDKEQVAKWVNLAQKELVIKNFAKLSQSLETLDSQLNLRTFILGGLKYSAADVACWGALRSNGMCGSIIKNKVDVNVSRWYTLLEMDPIFGEAHDFLSKSLLELKKSANVGKKKETHKANFE | soluble
11 | GSMYQLQFINLVYDTTKLTHLEQTNINLFIGNWSNHQLQKSICIRHGDDTSHNQYHILFIDTAHQRIKFSSFDNEEIIYILDYDDTQHILMQTSSKQGIGTSRPIVYERLV | soluble
12 | MKILVIGGPTAIGKSDLACCVAQKLNGEIISADSMAVYKFMDIGTAKPLECMKKVPHHLIDVVEPGGYFDAKIFEEMAKEKIEEIKRKGKVPIVVGGTYLYIQALLYGIDETPKPDWNLRNKLYEIARKKGNDYLYEKLKAIDPKYAKKIHKNDLRRIVRALEVFINTGKPFSSFHSWNKPKMDFVGIYLKRSPESLYKRIENRVYDMVKDGLLEEVKKLLEMGYENFLTSGQAIDYKEFVPCAKGEKSLEECIKEAIKNTKKQAKRQIRWFRKQGWHEIDLDKLSIEEACEEVVRIYKDANKTKLEHHHHHH | not soluble
13 | MGSDKIHHHHHHMNMLVRFFIMVSLLKQQLNKQLATEYLSVERLMAPVVRHYRVLPHDMGFRDHLPNYRYLSFIELNITNWLMACCHQKGIKNLGWIIAMQEMVYLKQIKFLDKMTVNSRVVGWDKKYVYFEHQFFVKNQLMAMGMTKFVLTNKQGKCATEVLDMTGEQLNEVIDTWSQHQVAIKSAKSTESTKAA | not soluble
14 | MGSDKIHHHHHHMNETNFDWDDLRLFLAVAREGGLAAAAASTGKSAPTLGRRMLNLERRLGSDLFQRMARGYALTEDGQHLLAKAARLESLVLPITAIDPEQAIPVVKVSAGSWVTHLLCANVSEIIGSDRIRLRFIASDDVADIGRREALIGIRNHRPEGSGLAGRRITRVRFAVYARNRKVNTWARVIATTPSAKWVREEARTADAIEVTSPRNALDLALAGTARVVLPTFIGSQFDTLKQVSPLIGDLEHEQWLVTHHEDRFVPQVRKVIDRIYLILKQAKTSS | not soluble
15 | MDPMYLLVDVGNTHSVFSITEDGKTFRRWRLSTGVFQTEDELFSHLHPLLGDAMREIKGIGVASVVPTQNTVIERFSQKYFHISPIWVKAKNGCVKWNVKNPSEVGADRVANVVAFVKEYGKNGIIIDMGTATTVDLVVNGSYEGGAILPGFFMMVHSLFRGTAKLPLVEVKPADFVVGKDTEENIRLGVVNGSVYALEGIIGRIKEVYGDLPVVLTGGQSKIVKDMIKHEIFDEDLTIKGVYHFCFGD | soluble
16 | VSKRAAPFLYMITQRIEERGLPMELALLPVVESSFDAFAYSHGSAAGLWQFVPGTGKMMGLEQNYWYDGRRDVAASTDAALDYLVQLNERFDGNWEHAIAAYNSGGGRVSSAIRKNKKLGKPVDFFSLDLPKETSSYVPKLLALADVVANQEKYGIDIPSIPNKPVLT | not soluble
